This experiment concerns the target HCoV-229E spike (S) protein, S2 subunit fusion core (HR1/HR2) (human coronavirus 229E, UniProt P15423). In words: cell-based or functional assay.

In the case of SLTQINTTLLDLTYEMLSLQQVVKALNESYIDLKEL [peptide #1 (Peptide 1 (WT))], the “IC50 (plaque reduction test, Vero E6 cells)” value was found to be 8.5 µg/mL.

The record behind these values is patent US11707504B1 (KING FAISAL UNIVERSITY, dated 2023).
